The values that follow come from US20150361184.

The data set concerns the target T1, Flag-tagged kinase dead murine DLK S302A, not phosphorylated at T43, S272 and S533.
T1 chain: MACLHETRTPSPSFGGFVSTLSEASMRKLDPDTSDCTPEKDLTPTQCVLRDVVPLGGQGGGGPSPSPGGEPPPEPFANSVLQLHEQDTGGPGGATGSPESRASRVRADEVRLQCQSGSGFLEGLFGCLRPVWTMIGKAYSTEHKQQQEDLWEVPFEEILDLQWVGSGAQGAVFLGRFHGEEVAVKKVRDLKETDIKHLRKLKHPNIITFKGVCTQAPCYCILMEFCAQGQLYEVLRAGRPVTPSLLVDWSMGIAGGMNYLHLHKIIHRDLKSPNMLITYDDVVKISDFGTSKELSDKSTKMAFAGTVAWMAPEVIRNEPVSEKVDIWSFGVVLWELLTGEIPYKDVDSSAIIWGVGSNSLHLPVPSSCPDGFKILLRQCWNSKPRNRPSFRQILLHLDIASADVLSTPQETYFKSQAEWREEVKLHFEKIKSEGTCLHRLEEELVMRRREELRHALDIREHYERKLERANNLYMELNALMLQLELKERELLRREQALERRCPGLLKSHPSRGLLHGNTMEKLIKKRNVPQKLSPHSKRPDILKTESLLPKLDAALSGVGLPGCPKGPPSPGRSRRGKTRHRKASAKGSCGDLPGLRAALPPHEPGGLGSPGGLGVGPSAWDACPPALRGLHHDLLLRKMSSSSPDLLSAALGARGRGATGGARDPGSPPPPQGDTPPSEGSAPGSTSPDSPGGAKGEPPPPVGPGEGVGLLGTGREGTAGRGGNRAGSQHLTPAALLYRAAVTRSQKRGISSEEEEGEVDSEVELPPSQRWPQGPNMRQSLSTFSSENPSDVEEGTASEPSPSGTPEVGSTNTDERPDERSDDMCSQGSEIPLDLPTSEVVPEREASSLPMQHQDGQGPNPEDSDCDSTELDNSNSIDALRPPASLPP

B1: GST-tagged human recombinant JNK3 (Millipore) (protein)
chain: MSLHFLYYCSEPTLDVKIAFCQGFDKQVDVSYIAKHYNMSKSKVDNQFYSVEVGDSTFTVLKRYQNLKPIGSGAQGIVCAAYDAVLDRNVAIKKLSRPFQNQTHAKRAYRELVLMKCVNHKNIISLLNVFTPQKTLEEFQDVYLVMELMDANLCQVIQMELDHERMSYLLYQMLCGIKHLHSAGIIHRDLKPSNIVVKSDCTLKILDFGLARTAGTSFMMTPYVVTRYYRAPEVILGMGYKENVDIWSVGCIMGEMVRHKILFPGRDYIDQWNKVIEQLGTPCPEFMKKLQPTVRNYVENRPKYAGLTFPKLFPDSLFPADSEHNKLKASQARDLLSKMLVIDPAKRISVDDALQHPYINVWYDPAEVEAPPPQIYDKQLDEREHTIEEWKELIYKEVMNSEEKTKNGVVKGQPSPSGAAVNSSESLPPSSSVNDISSMSTDQTLASDTDSSLEASAGPLGCCR
For the protein B1, the “in vitro kinase assay; phosphorylation of T43 and S533 read by blotting with phospho-specific antibodies” value was “both T43 and S533 can be phosphorylated directly by JNK”.
